Data on seven compounds can be found in PMC5750218, “Protein-inspired antibiotics active against vancomycin- and daptomycin-resistant bacteria” (Nature Communications, 2018).

For series [1] the following is noted: cited from earlier work; for log decrease: CAMHB with polysorbate-80; for log reduction from initial inoculum: nutrient-depleted media, ref Belley AAC 2009 53, 918.
A short description of a further series: Haemolysis assay. The class given is cell-based. The following applies: human; for hemolysis at 3 h: whole blood. The procedure:
Haemolytic activity was measured as previously described with slight modifications, [45]. Fresh human venal blood was collected from healthy volunteers and pretreated with the anticoagulant sodium citrate. Serial twofold dilutions of each antibiotic, dissolved in 0.9% NaCl solution, were added to fresh human whole blood (50% final, vol:vol) to the final volume of 80 μL and incubated at 37 °C for 3 h on a horizontal shaker at 200 rpm. For negative and positive controls, human whole blood in 0.9% NaCl solution (A blank) and in sdH2O (A water) were used, respectively. After incubation, both test and A blank were mixed with 1 mL 0.9% NaCl solution, or sdH2O for the complete […] A water. After centrifugation of samples at 2500 rpm (700 × g) for 5 min, the release of haemoglobin was monitored by measuring the absorbance (A sample) of the supernatant at 540 nm using BMG Labtech PolarStar Omega multimode reader. The percentage of haemolysis was calculated according to the equation: %haemolysis=Asample-Ablank∕Awater-Ablank×100

Series [2] concerns bioluminescent MSSA Xen-29. The experiment in a line: Bioluminescence IP infection in vivo model (neutropenic mice). The note with it: SC: 200 mg kg^−1 vancomycin, 50 mg kg^−1 daptomycin, 25 mg kg^−1 19 or 24. On the set-up: species or system Staphylococcus aureus. The procedure: Performed at the University of Queensland, following similar previous literature procedures. Xen-29 (Caliper LifeSciences), a methicillin-sensitive S. aureus (MSSA) strain which contains a copy of the modified luxABCDE operon of Photorhabdus luminescens was taken from the storage at −80 °C and freshly seeded on agar plates for overnight growth at 37 °C. From the overnight culture preparation, a single colony (tested for bioluminescence) was diluted into 10 mL of MHB and incubated overnight at 37 °C. A mid log-phase subculture was obtained by adding 100 μL of overnight subculture in 10 mL MHB and incubated for a further 2–3 h. Finally, the OD600 value of the bacterial suspension was determined and the colony forming units per millilitre (CFU mL^−1) was extrapolated. The suspension was then diluted out accordingly in order to achieve a 2.5 × 10^8 CFU mL^−1 solution (2.5 × 10^7 CFU in 100 μL). […] Mice were monitored for signs of normal behaviour (i.e. grooming, eating, drinking, sleeping and alertness) during and following dosing. […] Xen-29 colonies were then counted, with the CFU mL^−1 blood calculated. […] Luminescent images were quantified with the IVIS Living Image software where the total flux (number of photons/second) was calculated by a user defined region of interest (ROI) covering the infection sites.

In series [3] the test system is Bacillus subtilis ATCC 6633. Briefly: microbe, parasite or virus in culture. The class given is cell-based. The following applies: for Ac2Kaa concentration required to neutralise MIC activity / MIC: ATCC 6633, 48 h.
A further series in a line: in vitro. The following applies: human, 50% human plasma (pooled, sodium heparin) in PBS, pH 7.4.

Read-outs that look alike come from different tables or passages of the source. Where only a bound is given, the exact number is not on record here.

Experimental for in vitro: Briefly, test compounds (20 μM) were prepared from a 0.2 mM H2O stock solution (40 μL in 400 μL assay volume) except eucatropine, which was 300 μg mL^−1 in 100% DMSO (10 μL in 400 μL assay volume equivalent to 23 μM). The precipitating solution was prepared by adding 5 μL of 10 mM carbutamide in DMSO to 100 mL acetonitrile (final concentration: 135.5 ng mL^−1 or 0.5 μM carbutamide). The human plasma sample (pooled normal human plasma sodium heparin anticoagulant, 2 µL, Cat No.: [sequence], BioReclamation) and phosphate-buffer saline (PBS, pH 7.4 isotonic) were pre-heated at 37 °C for 30 min. 40 μL of test compounds (0.2 mM) were added to protein-low binding Eppendorf tubes, 160 μL of buffer was added, and the mixture was vortexed. For eucatropine, 10 μL of eucatropine (300 μg mL^−1) was added to a protein-low binding Eppendorf tube, 190 μL of buffer was added, and the mixture was vortexed. In each case, 200 μL of plasma was added and the resultant mixture vortexed. For the initial time point (reaction time t = 0 h), 50 μL of sample was immediately transferred into a protein-low binding Eppendorf tube and quenched with 150 μL of the ice-cold precipitating solution, followed by vortexing and subsequent storage at 4 °C. For the remaining time points, the plasma solution was incubated and shaken (150 rpm) at 37 °C. 50 μL aliquots were collected at time points of 0, 1, 3, 6 and 24 h and quenched with 150 μL the ice-cold precipitating solution. All samples were placed in a 4 °C fridge for 30 min then centrifuged at 14,000 × g for 8 min at 4 °C. The supernatant (100 μL) was transferred to a glass vial insert and stored at 4 °C until LC-MS/MS analysis. The percentage of test compounds remaining at the individual time points relative to sample at time point 0 h were reported.

For the compound `CN[C@H]1C(=O)N[C@@H]2Cc3ccc(cc3)Oc3cc4cc(c3O[C@@H]3O[C@H](C(=O)O)[C@@H](O)[C@H](O)[C@H]3NC(=O)CCCCCCCCC(C)C)Oc3ccc(cc3Cl)[C@@H](O)[C@@H]3NC(=O)[C@H](NC(=O)[C@@H]4NC(=O)[C@@H](NC2=O)c2cc(cc(O)c2Cl)Oc2cc1ccc2O)c1ccc(O)c(c1)-c1c(O[C@H]2O[C@H](CO)[C@@H](O)[C@H](O)[C@@H]2O)cc(O)cc1[C@@H](C(=O)NCCCN(C)C)NC3=O` [Compound 3, Dalbavancin], the log reduction in series [1] (32 µg mL-, 24h, ref Belley AAC 2016 60 4342) is 3 log.
Consider `CCCCCCCCCC(=O)N[C@@H](Cc1c[nH]c2ccccc12)C(=O)N[C@H](CC(N)=O)C(=O)N[C@@H](CC(=O)O)C(=O)N[C@@H]1C(=O)NCC(=O)N[C@@H](CCCN)C(=O)N[C@@H](CC(=O)O)C(=O)N[C@H](C)C(=O)N[C@@H](CC(=O)O)C(=O)NCC(=O)N[C@H](CO)C(=O)N[C@@H]([C@H](C)CC(=O)O)C(=O)N[C@@H](CC(=O)c2ccccc2N)C(=O)O[C@@H]1C` [Compound 4, Daptomycin], for which, in the series “Haemolysis assay” (% Human Whole Blood Haemolysis), the hemolysis at 3 h, 25 µg mL-1 stood at 0%; the hemolysis at 3 h, 50 µg mL-1 was 0.4%; the hemolysis at 3 h, 100 µg mL-1 came out at 0%; the hemolysis at 3 h, 200 µg mL-1 was 0.3%. In the series “Haemolysis assay” (% Human Whole Blood Haemolysis), this compound gave a hemolysis at 3 h, 400 µg mL-1 of 0.9%; a hemolysis at 3 h, 800 µg mL-1 of 0.3%; a hemolysis at 3 h, 1600 µg mL-1 of 1.6%. The “Change in bioluminescence signal (total flux) after inoculation” value in series [2] is listed as “progressive reduction in the bioluminescence signal”.
In the case of `CN[C@H](CC(C)C)C(=O)N[C@H]1C(=O)N[C@@H](CC(N)=O)C(=O)N[C@H]2C(=O)N[C@H]3C(=O)N[C@H](C(=O)N[C@H](C(=O)O)c4cc(O)cc(O)c4-c4cc3ccc4O)[C@H](O[C@H]3C[C@](C)(N)[C@@H](O)[C@H](C)O3)c3ccc(c(Cl)c3)Oc3cc2cc(c3O[C@@H]2O[C@H](CO)[C@@H](O)[C@H](O)[C@H]2O[C@H]2C[C@](C)(NCc3ccc(-c4ccc(Cl)cc4)cc3)[C@@H](O)[C@H](C)O2)Oc2ccc(cc2Cl)[C@H]1O` [Compound 5, Oritavancin, reference compound], the log decrease is listed as 4.5 log in series [1] (4 µg mL-, 1h, ref Belley AAC 2016 60 4342); 4.5 log in series [1] (4 µg mL-, 1h, ref Mckay, J Antimicrob Chemother 2009, 63 1191); 4.5 log in series [1] (16 µg mL-, 30 min, ref Belley AAC 2016 60 4342). Also, the “log reduction from initial inoculum” value in series [1] (4 µg mL-) was 3 log; in series [1] (16 µg mL-, 3h, no polysorbate-80), “approximately 4 log”.
As for `CCCCCCCCCCCCCC(=O)N[C@@H](CCCCN)C(=O)N[C@@H](CCCCN)C(=O)N[C@@H](CCCCN)C(=O)N[C@@H](CCCCNC(=O)[C@H]1NC(=O)[C@H]2NC(=O)[C@H](NC(=O)[C@@H]3NC(=O)[C@H](CC(N)=O)NC(=O)[C@H](NC(=O)[C@@H](CC(C)C)NC)[C@H](O)c4ccc(c(Cl)c4)Oc4cc3cc(c4O[C@@H]3O[C@H](CO)[C@@H](O)[C@H](O)[C@H]3O[C@H]3C[C@](C)(N)[C@H](O)[C@H](C)O3)Oc3ccc(cc3Cl)[C@H]2O)c2ccc(O)c(c2)-c2c(O)cc(O)cc21)C(=O)O` [Compound 17, nC13CO-KKK-K(Vancomycin)-OH], the hemolysis at 3 h in the series “Haemolysis assay” (25 µg mL-1) was 0.15%; in “Haemolysis assay” (50 µg mL-1), 0.75%; in “Haemolysis assay” (100 µg mL-1), 0.65%; in “Haemolysis assay” (200 µg mL-1), 0.85%; in the series “Haemolysis assay” (400 µg mL-1), 0.5%; in the series “Haemolysis assay” (800 µg mL-1), 1%. The compound further came in with a hemolysis at 3 h in “Haemolysis assay” (1600 µg mL-1) of 1.55%. For the same compound, in series [3], the “Ac2Kaa concentration required to neutralise MIC activity” value (“Ac2Kaa concentration required” below) turned out to be 400 µg/mL. This compound gave an MIC in series [3] of at most 0.004 µg/mL. In addition, in series [3] ([ligand]/[antibiotic], B. subtilis ATCC 6633, 24 h), the “Molar excess of Ac2Kaa ligand required to antagonise antibacterial activity” value is given as 29,472. Moreover, in “in vitro”, the share remaining at 1 h, 20 µM was 79%. The share remaining at 3 h, 20 µM in “in vitro” was 79%. Moreover, the amount remaining at 6 h, 20 µM in “in vitro” came out at 62%. In addition, the fraction remaining at 24 h, 20 µM in “in vitro” turned out to be 66%.
For `CCCCCCCCCCC(=O)N[C@@H](CCCCN)C(=O)N[C@@H](CCCCN)C(=O)N[C@@H](CCCCN)C(=O)N[C@@H](CCCCNC(=O)[C@H]1NC(=O)[C@H]2NC(=O)[C@H](NC(=O)[C@@H]3NC(=O)[C@H](CC(N)=O)NC(=O)[C@H](NC(=O)[C@@H](CC(C)C)NC)[C@H](O)c4ccc(c(Cl)c4)Oc4cc3cc(c4O[C@@H]3O[C@H](CO)[C@@H](O)[C@H](O)[C@H]3O[C@H]3C[C@](C)(N)[C@H](O)[C@H](C)O3)Oc3ccc(cc3Cl)[C@H]2O)c2ccc(O)c(c2)-c2c(O)cc(O)cc21)C(=O)O` [Compound 18, nC10CO-KKK-K(Vancomycin)-OH], the hemolysis at 3 h in the series “Haemolysis assay” (100 µg mL-1) came to 1.4%. For the same compound, the hemolysis at 3 h in “Haemolysis assay” (1600 µg mL-1) was 1.2%. For the same compound, in series [3], the “Ac2Kaa concentration required” value worked out at 100 µg/mL and the MIC was at most 0.004 µg/mL. In addition, in the series “in vitro”, the amount remaining at 1 h, 20 µM was determined as 87%; the fraction remaining at 3 h, 20 µM stood at 87%; the share remaining at 6 h, 20 µM was found to be 83%; the fraction remaining at 24 h, 20 µM is 93%.
On to `CCCCCCCCCCC(=O)N[C@@H](CCCCN)C(=O)N[C@@H](CCCCN)C(=O)N[C@@H](CCCCNC(=O)[C@H]1NC(=O)[C@H]2NC(=O)[C@H](NC(=O)[C@@H]3NC(=O)[C@H](CC(N)=O)NC(=O)[C@H](NC(=O)[C@@H](CC(C)C)NC)[C@H](O)c4ccc(c(Cl)c4)Oc4cc3cc(c4O[C@@H]3O[C@H](CO)[C@@H](O)[C@H](O)[C@H]3O[C@H]3C[C@](C)(N)[C@H](O)[C@H](C)O3)Oc3ccc(cc3Cl)[C@H]2O)c2ccc(O)c(c2)-c2c(O)cc(O)cc21)C(=O)O` [Compound 19, nC10CO-KK-K(Vancomycin)-OH], for which the hemolysis at 3 h in “Haemolysis assay” (100 µg mL-1) was 0.7%; in the series “Haemolysis assay” (1600 µg mL-1) it was 0.5%. The “Ac2Kaa concentration required” value in series [3] came out at 100 µg/mL. In series [3], the MIC is at most 0.004 µg/mL.
Turning to `CNC(=O)[C@H](CCCCNC(=O)[C@H]1NC(=O)[C@H]2NC(=O)[C@H](NC(=O)[C@@H]3NC(=O)[C@H](CC(N)=O)NC(=O)[C@H](NC(=O)[C@@H](CC(C)C)NC)[C@H](O)c4ccc(c(Cl)c4)Oc4cc3cc(c4O[C@@H]3O[C@H](CO)[C@@H](O)[C@H](O)[C@H]3O[C@H]3C[C@](C)(N)[C@H](O)[C@H](C)O3)Oc3ccc(cc3Cl)[C@H]2O)c2ccc(O)c(c2)-c2c(O)cc(O)cc21)NC(=O)[C@H](CCCCN)NC(=O)[C@H](CCCCN)NC(=O)[C@H](CCCCNC(=O)c1ccc(Oc2ccccc2)cc1)NC(=O)c1ccc(Oc2ccccc2)cc1` [Compound 24, POB2K-KK-K(Vancomycin)-NHMe], in the series “in vitro”, the amount remaining at 1 h, 20 µM was determined as 100%; the amount remaining at 3 h, 20 µM was 100%; the amount remaining at 6 h, 20 µM was 106%; the share remaining at 24 h, 20 µM turned out to be 89%.
